Experimental data: doi:10.1101/2025.11.06.687086

Molecular target: A/Solomon Islands/3/2006 (H1N1) HA (influenza A virus A/Solomon Islands/3/2006 (H1N1))
Assay: cryo-EM structure

A/Solomon Islands/3/2006 (H1N1) HA (natural protein)
stoichiometry N: 3
